Results from patent US20230303681A1 (published 2023).
“And” between values parts separate entries of the source, which are not always exact repeats. Equal entries are not always repeated.

B1: anti-TMEM106B antibody TM-9 (antibody, V domains shown)
VH: EVQLVESGGDLVKPGGSLKLSCVASGFTFSGYGMSWVRQTPDKRLEWVATISSGSFYIYYPDSVKGRLTVSRDNAKNTLYLQMSSLKSEDTAIYYCARQNFYYGCEDYWGQGTTLTVSS
VL: DIVMTQAAFSNPVTLGTSASISCRSSKSLLHSNGITYLYWYLQKPGQSPQLLIYQMSNLASGVPNRFSSSGSGTDFTLRISRVEAEDVGVYYCAQNLELPWTFGGGTKLEIK
B2: anti-TMEM106B antibody TM-35 (antibody, V domains shown)
VH: QVQLQQSGPELVRPGTSVKISCKAPGYTFTRHWMQWVRQRPGQGLEWIGEILPGSNNIYYNEKVKGKATLTVDTSSSTSYMQLSSLTSEDSAVYFCARSLYDYDGVFAYWGQGTLVTVSA
VL: DVLMTQIPLSLPVSLGDQASISCRSSQSIVHRNGNTYLEWYLQKPGQSPKLLIYKVSNRFSGVPDRFSGSGSGTDFTLKISRVEAEDLGVYYCFQGSHVPYTFGGGTKLEIK
B3: anti-TMEM106B antibody TM-42 (antibody, V domains shown)
VH: QVQLQQSGAELAKPGASVKLSCKASGYTFTNYWMHWVKKRPGQGLEWIGYINPSSGYTKYNQKFKDKATLTADKSSNTAYMQLSSLTYEDSAVYYCTREGGSISDWYFDVWGTGTTVTVSS
VL: DIVMTQAAPSLPVTPGESVSISCRSSKSLLHSNGNTYLYWFLQRPGQSPQLLIYRMSNLASGVPDRFSGSGSGTAFTLRISRVEAEDVGVYYCMQHLEYPYTFGGGTKLEIK
B4: anti-TMEM106B antibody TM-39 (antibody, V domains shown)
VH: HVQRQQSGTELAKPGASVKLSCKTSGYTFTDYWMHWIKQRPGQGLEWIGFINPSSGYTKYNQNFKDKATLTADKSSSTAYMQLSSLTYEDSAVFYCAREAGSISDWYFDVWGTGTTVTVSS
VL: DIVMTQAAPSIPVTPGESVSISCRSSKTLLNSNGNTYLYWFLQRPGQPPQLLIYRMSNLASGVPDRFSGSGSGTAFTLRISRVEAEDVGVYYCMQHLDYPYTFGGGTQLEIK
B5: anti-TMEM106B antibody TM-45 (antibody, V domains shown)
VH: QVQLQQSGAELAKPGASVKLSCKASGYTFTNYWMHWVKKRPGQGLEWIGYINPSSGYTKYNQKFKDKATLTADKSSNTAYMQLSSLTYEDSAVYYCTREGGSISDWYFDVWGTGTTVTVSS
VL: DIVMTQAAPSLPVTPGESVSISCRSSKSLLHSNGNTYLYWFLQRPGQSPQLLIYRMSNLASGVPDRFSGSGSGTAFTLRISRVEAEDVGVYYCMQHLEYPYTFGGGTKLEIK
B6: anti-TMEM106B antibody TM-37 (antibody, V domains shown)
VH: QVQLQQSGAELAKPGASVKLSCKASGYTFTSYWMHWVKQRPGQGLEWIGYVNPSSGYTKNNQKFKDKVTLTADKSSSTAYMQLSSLTYEDSAVYYCAREGGSISDWYFDVWGTGTTVTVSS
VL: DIVMTQAAPSVPVTPGESVSISCRSSKSLLHSNGNTYSYWFLQRPGQSPQLLIYRMSNLASGVPDRFSGSGSGTAFTLRISRVEAEDVGVYYCMQHLEYPYTFGGGTKLEIK
B7: anti-TMEM106B antibody TM-34 (antibody, V domains shown)
VH: EVQLVESGGGLVKPGGSLKLSCAASGFSFSDSGMDWVRQAPEKGLEWFAYISSGSSTTHYADTVKGRFIISRDNAKNTLFLQMTSLRSEDTAMYYCVRRDGNYWYFDVWGTGTTVTVSS
VL: QIVLSQSPVILSASPGEKVTMTCRATSSVTYMHWYQLKPGSSPKPWIYATSNLASGVPARFSGSGSGTSYSLTISRVEAEDAATYYCQQWSSNPYTFGGGTKLEIK
B8: anti-TMEM106B antibody TM-46 (antibody, V domains shown)
VH: QVQLQQSGADLVKPGASVKISCKASGYAFSSFWMNWVKLRPGKGLEWIGQIYPGDGDTDYNGKFKDKATLTADTSSNTAYMQLSRLTSEDSAVYFCARGDGFSYFDYWGQGTILTVSS
VL: QIVLTQSPVIMSASPGERVTMTCCASSRVNYMHWYQQKSGSYPKRWIYDTSKLASGVPGRFSGSGSGTSYSLTISSMEAEDAATYYCQQWSSNPPTFGGGTKLEIK
B9: anti-TMEM106B antibody TM-51 (antibody, V domains shown)
VH: QVQLQQPGAELVKPGASVKLSCKASGYTFTTYWIDWVKQRPGQGLEWIGNMFPGSSRTNYNEKFKSRATLTVDTSSSTAYMQLSSLTSDDSAVYYCARKEGLWTYGYDGGAWFAYWGQGTLVTVSA
VL: DIVMSQSPSSLAVSVGEKVTMSCKSSQSLRNSRTRKNYLAWYQQKPGQSPKLLIYWASTRESGVPDRFTGSGSGTDFTLTISSVQAEDLAIYYCKQSYNLLTFGAGTKLELK
notes: mouse IgG from hybridoma
B10: anti-TMEM106B antibody TM-7 (antibody, V domains shown)
VH: EVQLQQSGPVLVKPGPPVKISCKASGFTFTDYYIHWVKLSHGKSLEWIGLVYPYNGDTDYNQKFKGKATLTVDTSSSTAYMELNSLTSEDSAVYYCARTYYANSPDYWGQGTTVTVSS
VL: DIVMTQSPSSLSVSAGEKVTMSCKSSQSLLNSGNQRNYLAWYQQKPGQPPKLLIYGASTRESGVPDRFTGSGSGTDFTLTISNVQAEDLAVYYCQNDHSYPLTFGAGTKLELK
B11: anti-TMEM106B antibody TM-47 (antibody, V domains shown)
VH: QVQLKESGPVLVAPSQSLSITCTVSGFSLTNYGVHWVRQPPGKGLEWLGVIWAGGNTNYNSALMSRLSISKDNSKSQVFLKMNSLQTDDTAMYYCAKEAKLLRSYAMDYWGQGTSVTVSS
VL: DIVMTQSPSSLTVTAGEKVTMSCKSSQSLLNSGNQKNYLTWYQQKPGQPPKLLIYWASTRESGVPDRFTGSGSGTDFTLTISSVQAEDLAVYYCQNDYSYPLTFGAGTKLEIK
notes: mouse IgG from hybridoma

Legend:
human TMEM106B [1] = molecular target: T1, human TMEM106B (human, UniProt Q9NUM4 2-274); assay: FACS HeLa;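 also: flow cytometry of cells incubated with hybridoma supernatant or purified antibody at 10 µg/ml for 1 h on ice, propidium iodide–positive dead cells gated out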
T1 construct: Full-length, on transiently transfected HEK293 cells, or natively expressed on HeLa, U251 and A549 cells; also called huTMEM106B; huTMEM

human TMEM106B [2] = molecular target: T1, human TMEM106B; assay: FACS HEK+huTMEM, 1.0 ug/ml
Experimental: (§1) Purified anti-TMEM106B antibodies were evaluated for their binding affinity to various TMEM106B-expressing cell lines including HEK293 transiently transfected with human/cyno/mouse TMEM106B, as well as HeLa cells and A549 cells. Antibodies tested for this experiment were mouse IgGs purified from hybridoma supernatant. Affinity binding to cells was determined as follows. Briefly, 1x10^5 cells were aliquoted per well in 96-well round bottom plates and incubated with 50 µL of purified anti-TMEM106B antibody at various concentrations (10x dilutions starting at 10 µg/ml) in FACS buffer (PBS + 2% FBS + 1 mM EDTA). […] Sorting was performed on a iQue (Intellicyt), with sort gates drawn to exclude dead (propidium iodide +) cells. Binding data was analyzed using median fluorescent intensity (MFI) and graphed in Prism. Values presented are MFI.

mouse TMEM106B [3] = molecular target: T2, mouse TMEM106B (mouse, UniProt Q80X71 2-275); assay: FACS Neuro2a;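 also: flow cytometry of cells stained with antibody or hybridoma supernatant (purified antibody at 10 µg/ml) for 1 h on ice, propidium iodide–positive dead cells gated out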
T2 construct: on transiently transfected HEK293 cells, or natively expressed on mouse Neuro2a cells; also called moTMEM106B; murine TMEM106B

GST (Pierce) [4] = molecular target: T3, GST (Pierce) (UniProt P08515 1-218 = GST, limits assumed); assay: ELISA, coated GST;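 also: ELISA on plates coated with GST alone at 1-10 µg/ml, antibodies applied at 100-1000x dilution, bound antibody detected by peroxidase substrate colour after acid stop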
T3 construct: control for the GST part of the fusion protein; also called GST protein; Glutathione-S-transferase

human TMEM106B [5] = molecular target: T1, human TMEM106B; assay: FACS HEK+huTMEM, 10 ug/ml;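 also: purified mouse IgG antibodies at 10 µg/ml bound to HEK293 cells transiently expressing human TMEM106B, measured by flow cytometry as median fluorescence intensity of propidium iodide negative live cells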
human TMEM106B [6] = molecular target: T1, human TMEM106B; assay: FACS, HEK293 transfectants;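 as to fold over negative controls: hybridoma supernatants incubated 30 min on ice with human TMEM106B-expressing HEK293 cells, binding read as anti-mouse-APC median fluorescence on live cells, relative to secondary-antibody-only wells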;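 as to fold-change over parental HEK293: flow cytometry binding of hybridoma supernatants to HEK293 cells transiently expressing human, cyno or mouse TMEM106B, read as anti-mouse-APC median fluorescence, live cells only, 30 min on ice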
human TMEM106B [7] = molecular target: T1, human TMEM106B; assay: FACS A549, 1 ug/ml
human TMEM106B [8] = molecular target: T1, human TMEM106B; assay: FACS A549
human TMEM106B [9] = molecular target: T1, human TMEM106B; assay: FACS HEK+huTMEM, 0.01 ug/ml
Experimental: as §1

human TMEM106B [10] = molecular target: T1, human TMEM106B; assay: FACS A549, 10 ug/ml
human TMEM106B [11] = molecular target: T1, human TMEM106B; assay: FACS HEK+huTMEM, 0.1 ug/ml;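 also: flow cytometry binding of purified mouse IgG antibodies to HEK293 cells transiently expressing TMEM106B, read as median fluorescence intensity with propidium iodide positive dead cells gated out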
Experimental: as §1

human TMEM106B [12] = molecular target: T1, human TMEM106B; assay: FACS U251;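 also: flow cytometry of cells exposed to antibody (purified at 10 µg/mL, or hybridoma supernatant) for 1 h on ice, with propidium iodide-positive dead cells gated out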
Experimental: All cells were cultured in either T75 or T150 flasks. […] The enzyme was quenched by addition of fresh media, and the cells were then distributed into 96-well plates for FACS analysis.
FACS analysis was performed as follows. Each cell type was aliquoted in 96-well round bottom plates (2x10^5 cells per well), washed once with FACS buffer (PBS + 2% FBS + 1 mM EDTA), and incubated with 50 µL of hybridoma supernatant or purified antibody (10 µg/ml in FACS buffer) on ice for 1 hour. […] Following this secondary incubation, the cells were again washed 2x with ice-cold FACS buffer and resuspended in a final volume of 50 µL of FACS buffer + 0.25 µl/well propidium iodide (Fisher Scientific # BDB556463). Analysis was performed on a FACSCanto system (BD Biosciences) or iQue (Intellicyt), with sort gates drawn to exclude dead (i.e., propidium iodide positive) cells.
Data is presented as mean fluorescence intensity (MFI).

mouse TMEM106B [13] = molecular target: T2, mouse TMEM106B; assay: FACS, HEK293 transfectants;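 also: flow cytometry binding of hybridoma supernatants to HEK293 cells transiently expressing human, cyno or mouse TMEM106B, read as anti-mouse-APC median fluorescence, live cells only, 30 min on ice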
human TMEM106B [14] = molecular target: T1, human TMEM106B; assay: FACS, HEK293 transfectants; remark: listed apart in the source;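 as to fold over negative controls: hybridoma supernatants incubated 30 min on ice with human TMEM106B-expressing HEK293 cells, binding read as anti-mouse-APC median fluorescence on live cells, relative to secondary-antibody-only wells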;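 as to fold-change over parental HEK293: flow cytometry binding of hybridoma supernatants to HEK293 cells transiently expressing human, cyno or mouse TMEM106B, read as anti-mouse-APC median fluorescence, live cells only, 30 min on ice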
[15] = molecular target: T4, cynomolgus (cyno) TMEM106B (cynomolgus, UniProt Q9NUM4 2-274 (human entry)); assay: FACS, HEK293 transfectants;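 also: flow cytometry binding of hybridoma supernatants to HEK293 cells transiently expressing human, cyno or mouse TMEM106B, read as anti-mouse-APC median fluorescence, live cells only, 30 min on ice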
T4 construct: on transiently transfected HEK293 cells

[16] = molecular target: T5, GST-fusion human TMEM106B truncated (human); assay: array SPR, Ab immobilised;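 also: antibodies amine-coupled on an MX-96 chip, antigen flowed at 500 nM top concentration in 5-fold serial dilutions, GST alone run as nonspecific-binding control, duplicate measurements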
T5 construct: also called GST-TMEM106B-truncated protein; GST-TMEM106B (truncated)

GST (Pierce) [17] = molecular target: T3, GST (Pierce); assay: array SPR, Ab immobilised

Row | Binder | MFI (human TMEM106B [1]) | MFI (human TMEM106B [2]) | MFI (mouse TMEM106B [3]) | binding result (GST (Pierce) [4]) | MFI (human TMEM106B [5]) | fold over negative controls (human TMEM106B [6]) | MFI (human TMEM106B [7]) | MFI (human TMEM106B [8]) | MFI (human TMEM106B [9]) | MFI (human TMEM106B [10]) | MFI (human TMEM106B [11]) | MFI (human TMEM106B [12]) | fold-change over parental HEK293 (mouse TMEM106B [13]) | fold-change over parental HEK293 (human TMEM106B [14]) | fold-change over parental HEK293 [15] | Kd [16] | koff [16] | kon [16] | binding result (GST (Pierce) [17])
1 | B1 | 2540 | 62100 | 2710 | no binding | 56400 | > 2 fold | 4880 | 1990 | 3940 | 7090 | 28300 | 1540 | 8.52 fold | 10.7 fold | 22.3 fold | 4.2 nM and 5.2 nM | 8.3e-05 s⁻¹ and 8.4e-05 s⁻¹ | 20000 M⁻¹ s⁻¹ and 16000 M⁻¹ s⁻¹ | 
2 | B2 | 241 | 55400 | 181 |  | 48700 | > 2 fold | 3270 | 982 | 4080 | 4200 | 22600 | 370 | 1.04 fold | 11.5 fold | 14.7 fold | 6 nM and 6.8 nM | 9e-05 s⁻¹ and 0.00011 s⁻¹ | 15000 M⁻¹ s⁻¹ and 16000 M⁻¹ s⁻¹ | no binding
3 | B3 | 215 | 58100 | 237 |  | 60100 |  | 1780 | 947 | 2070 | 3300 | 16700 | 326 |  |  |  | 33 nM and 24 nM |  |  | no binding
4 | B4 |  | 55600 |  |  | 51900 | > 2 fold | 3610 |  | 3850 | 5330 | 19200 |  |  |  |  | 4.1 nM and 2.2 nM | 5.8e-05 s⁻¹ and 3e-05 s⁻¹ | 14000 M⁻¹ s⁻¹ | no binding
5 | B5 | 191 | 57600 | 187 |  | 58100 |  | 1860 | 819 | 2500 | 3240 | 21300 | 517 |  |  |  | 19 nM and 18 nM |  |  | no binding
6 | B6 | 254 | 58700 | 208 |  | 50500 |  | 2980 | 1040 | 3920 | 4210 | 29400 | 408 |  |  |  | 2.6 nM and 6.3 nM |  |  | no binding
7 | B7 |  |  |  |  |  |  |  |  |  |  |  |  |  |  |  |  |  |  | no binding
8 | B8 |  |  |  |  |  |  |  |  |  |  |  |  |  |  |  |  |  |  | no binding
9 | B9 |  |  |  |  |  |  |  |  |  |  |  |  |  |  |  |  |  |  | no binding
10 | B10 | 1070 | 40000 | 1200 | no binding | 40800 | > 2 fold | 883 | 647 | 1670 | 1810 | 9870 | 442 | 15.5 fold | 17.5 fold | 47.5 fold |  |  | 9900 M⁻¹ s⁻¹ and 10000 M⁻¹ s⁻¹ | 
11 | B11 |  |  |  |  |  |  |  |  |  |  |  |  |  |  |  |  |  |  | no binding
